Source: article PMC3929958 (Molecular cell, 2013)
Changes are numbered by the printed parent chain. Names may count otherwise. Read-outs that look alike come from different tables or passages of the source.

Experiments:
[1] = target: the molecule itself; test: fluorescence polarisation
[2] = target: the molecule itself; test: fluorescence polarisation; remark: listed apart in the source
[3] = target: the molecule itself; test: fluorescence polarisation; remark: listed apart in the source
[4] = target: the molecule itself; test: SEC-MALS
[5] = target: the molecule itself; test: SEC

B1: Bcl10 R36E/E50R/D51R triple mutant (natural protein)
chain: MEPTAPSLTEEDLTEVKKDALENLRVYLAEKIIAEEHFDHLRAKKILSRRRTEEISARTSSRKRAGKLLDYLQENPKGLDTLVESIRREKTQNFLIQKITDEVLKLRNIKLEHLKGLKCSSCEPFPDGATNNLSRSNSDESNFSEKLRASTVMYHPEGESSTTPFFSTNSSLNLPVLEVGRTENTIFSSTTLPRPGDPGAPPLPPDLQLEEEGTCANSSEMFLPLRSRTVSRQ
polymerization activity relative to WT Bcl10 [1]: ~50%

B2: Alexa 488-labeled Bcl10 (C29A/C57A double mutant), MBP removed by TEV (natural protein, human, UniProt O95999 1-233, looked up)
chain: B1 chain with E36R, R50E, R51D
modifications: Alexa 488 label (site not stated)
Kd [2]: 4.3 µM | Kd [3]: 800 nM

B3: CARMA1 (8–172) (domain or fragment, human, UniProt Q9BXL7 8-172, looked up)
chain: MDDYMETLKDEEDALWENVECNRHMLSRYINPAKLTPYLRQCKVIDEQDEDEVLNAPMLPSKINRAGRLLDILHTKGQRGYVVFLESLEFYYPELYKLVTGKEPTRRFSTIVVEEGHEGLTHFLMNEVIKLQQQMKAKDLQRCELLARLRQLEDEKKQMTLTRVE
stoichiometry N [4]: 3

B4: CARMA1 (8–302) (domain or fragment, human, UniProt Q9BXL7 8-302, looked up)
chain: MDDYMETLKDEEDALWENVECNRHMLSRYINPAKLTPYLRQCKVIDEQDEDEVLNAPMLPSKINRAGRLLDILHTKGQRGYVVFLESLEFYYPELYKLVTGKEPTRRFSTIVVEEGHEGLTHFLMNEVIKLQQQMKAKDLQRCELLARLRQLEDEKKQMTLTRVELLTFQERYYKMKEERDSYNDELVKVKDDNYNLAMRYAQLSEEKNMAVMRSRDLQLEIDQLKHRLNKMEEECKLERNQSLKLKNDIENRPKKEQVLELERENEMLKTKNQELQSIIQAGKRSLPDSDKAIL
stoichiometry N [5]: > 100
